Data on four substances can be found in patent publication US20220280611A1, “SOLID COMPOSITION COMPRISING A PYY COMPOUND AND A SALT OF N-(8-(2- HYDROXYBENZOYL)AMINO)CAPRYLIC ACID” (Novo Nordisk A/S, priority 2019, published 2022).

Starred links: 1 amine or outer side, 2 acyl side, 3 side chain; linkers in the order of their positions; H or OH if unused. Non-standard residues stand in square brackets, D forms with d. Groups on a side chain read outwards from the residue. No end group written: not given here. *: point of attachment. Decanoyl(10-(4-HOOC-PhO)) = O=C(O)c1ccc(OCCCCCCCCCC(=O)*)cc1; γGlu = O=C(O)[C@H](CCC(=O)[*:2])N[*:1]; AEEA = NCCOCCOCC(=O)O; Aib = CC(C)(N)C(=O)O

For data set [1] the following is noted: in words; PCT/EP2019/052487; cited from earlier work.
The nature of data set [2]: Assay IV: Pharmacokinetic studies in Beagle dogs (oral exposure). It counts as in vivo. Particulars: peroral. The procedure:
Pharmacokinetic (PK) studies in Beagle dogs are conducted to determine the exposure of the PYY compound after peroral administration of different dosage forms.
For the pharmacokinetic studies male Beagle dogs are used, 1 to 5 years of age and weighing approximately 10-12 kg at the start of the studies. The dogs are group housed in pens (12 hours light: 12 hours dark), and fed individually and restrictedly once daily with Royal Canin Medium Adult dog (Royal Canin Products, China Branch, or Brogaarden A/S, Denmark). Exercise and group social are permitted daily, whenever possible. The dogs are used for repeated pharmacokinetic studies with a suitable wash-out period between successive dosings. An appropriate acclimatisation period is given prior to initiation of the first pharmacokinetic study. All handling, dosing and blood sampling of the animals are performed by trained and skilled staff. Before the studies the dogs are fasted overnight and from 0 to 4 h after dosing. Besides, the dogs are restricted to water 1 hour before dosing until 4 hours after dosing, but otherwise have ad libitum access to water during the whole period.
The tablets comprising the PYY compound are administered in the following manner: 10 min prior to tablet administration the dogs are dosed subcutaneously with approximately 3 nmol/kg of SEQ ID NO: 34). The PYY tablets are placed in the back of the mouth of the dog to prevent chewing. The mouth is then closed and tap water is given by a syringe or gavage to facilitate swallowing of the tablet.
Blood is sampled at predefined time points for up till 10 hr post dosing to adequately cover the full plasma concentration-time absorption profile of the PYY compound.
For each blood sampling time point approximately 0.8 mL of whole blood is collected in a 1.5 mL EDTA coated tube, and the tube is gently turned to allowing mixing of the sample with the EDTA. Blood samples (for example 0.8 mL) are collected in EDTA buffer (8 mM) and then centrifuged at 4° C. and 2000 G for 10 minutes. Plasma is pipetted into Micronic tubes on dry ice and kept at −20° C. until analysis. […]
PYY compound was assayed in dog plasma by plasma protein precipitation and turboflow liquid chromatography tandem mass spectrometry (TF-LC-MS/MS). […] The mixture was analysed by TF-LC-MS/MS using a Cyclone turboflow column (0.5×50 mm, ThermoFisher Scientific) and an Aeris Peptide 3.6 um XB-C18 analytical column (50×2.1 mm, Phenomenex) or a Poroshell SB-C18 2.7 um analytical column (50×2.1 mm, Agilent). […] The deviation between nominal and calculated concentration in the calibrators and quality control samples was below 20%. […]

The mark [3] stands for this setting: Test 4 tablet, SNAC amount 100 mg.
Where [4] appears, read: Test 3 tablet, SNAC amount 300 mg.

Consider “N-epsilon26-[2-(2-{2-[2-(2-{2-[(S)-4-carboxy-4-(17-carboxyheptadecanoylamino) butyrylamino]ethoxy}ethoxy)acetylamino]ethoxy}ethoxy)acetyl][Aib8,Arg34]GLP-1(7-37) [Semaglutide]”, for which the “Oral availability when formulated in a SNAC formulation” value in data set [1] is on record as “orally available”.

Consider “N-epsilon27-[2-[2-[2-[[2-[2-[2-[[(4S)-4-carboxy-4-[10-(4-carboxyphenoxy)decanoylamino]butanoyl]amino]ethoxy]ethoxy]acetyl]amino]ethoxy]ethoxy]-acetyl], N-epsilon36-[2-[2-[2-[[2-[2-[2-[[(4S)-4-carboxy-4-[10-(4-carboxyphenoxy)decanoylamino]-butanoyl]amino]ethoxy]ethoxy]acetyl]amino]ethoxy]ethoxy]acetyl]-[Aib8,Glu22,Arg26,Lys27, Glu30,Arg34,Lys36]-GLP-1-(7-37)-peptidyl-Glu-Gly (H[Aib]EGTFTSDVSSYLEEQAARK([AEEA-AEEA-γGlu-Decanoyl(10-(4-HOOC-PhO))])FIEWLVRGK([AEEA-AEEA-γGlu-Decanoyl(10-(4-HOOC-PhO))])GEG) [GLP-1 agonist A]”, for which the “Oral availability when formulated in a SNAC formulation” value in data set [1] is on record as “orally available”.

As to “N{alpha-4}-(3-Methylbutanoyl)-N{Epsilon-7}-6-[[(4S)-4-carboxy-4-(17-carboxy-heptadecanoylamino)butanoyl]amino]hexanoyl-[Arg4,Lys7,Gln18,Ile22,Tyr28, Trp30,Leu31]hPYY(4-36) [Compound 32]”, in data set [2] (setting [3]), the “Dose corrected AUC 0-30 min” value is 5.05 arbitrary unit and the “Dose corrected exposure t = 30 min” value was found to be 0.268 kg/L.

As for “N{alpha-4}-(3-Methylbutanoyl)-N{Epsilon-7}-6-[[(4S)-4-carboxy-4-(17-carboxy-heptadecanoylamino)butanoyl]amino]hexanoyl-[Arg4,Lys7,Pro9,Gln18,Tyr28,Trp30,Leu31]hPYY(4-36) [Compound 4]”, in data set [2] (setting [4]), the “Dose corrected AUC 0-30 min” value is given as 2.24 arbitrary unit and the “Dose corrected exposure t = 30 min” value is listed as 0.138 kg/L.
